Article PMC4631608 (Journal of structural and functional genomics, 2015)

Biological target: the molecule itself
Assay: SEC

B1: M. tuberculosis Rv1496 (natural protein)
chain: MMAASHDDDTVDGLATAVRGGDRAALPRAITLVESTRPDHREQAQQLLLRLLPDSGNAHRVGITGVPGVGKSTAIEALGMHLIERGHRVAVLAVDPSSTRTGGSILGDKTRMARLAVHPNAYIRPSPTSGTLGGVTRATRETVVLLEAAGFDVILIETVGVGQSEVAVANMVDTFVLLTLARTGDQLQGIKKGVLELADIVVVNKADGEHHKEARLAARELSAAIRLIYPREALWRPPVLTMSAVEGRGLAELWDTVERHRQVLTGAGEFDARRRDQQVDWTWQLVRDAVLDRVWSNPTVRKVRSELERRVRAGELTPALAAQQILEIANLTDR
  stoichiometry N: 2
